Data from US20070243194A1 (Biogen, published 2007).

Biological target: human IGF-1R on cells (human, UniProt P08069 31-740; P08069 741-1367)
Assay: cell-based or functional assay

Chain of human IGF-1R on cells (P08069 31-740, chain 1 of 2): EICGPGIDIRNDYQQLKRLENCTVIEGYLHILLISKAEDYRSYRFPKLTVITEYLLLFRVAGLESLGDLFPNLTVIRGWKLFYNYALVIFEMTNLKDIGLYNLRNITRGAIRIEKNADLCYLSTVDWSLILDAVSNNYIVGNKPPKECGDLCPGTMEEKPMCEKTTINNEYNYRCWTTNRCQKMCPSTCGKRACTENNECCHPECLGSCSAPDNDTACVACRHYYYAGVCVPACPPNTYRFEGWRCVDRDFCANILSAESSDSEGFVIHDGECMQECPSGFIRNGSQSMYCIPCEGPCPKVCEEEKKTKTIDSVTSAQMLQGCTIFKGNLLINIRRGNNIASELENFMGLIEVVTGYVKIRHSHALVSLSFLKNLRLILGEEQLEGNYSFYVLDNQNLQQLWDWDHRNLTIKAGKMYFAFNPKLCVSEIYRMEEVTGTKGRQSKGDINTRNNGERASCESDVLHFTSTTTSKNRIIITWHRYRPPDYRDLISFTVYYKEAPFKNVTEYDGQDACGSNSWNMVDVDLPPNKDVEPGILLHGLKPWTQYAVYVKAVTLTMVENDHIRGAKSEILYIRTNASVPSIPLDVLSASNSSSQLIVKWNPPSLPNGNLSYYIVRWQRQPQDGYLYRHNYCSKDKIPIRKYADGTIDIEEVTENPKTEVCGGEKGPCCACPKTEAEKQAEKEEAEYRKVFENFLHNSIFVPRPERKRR
Chain of human IGF-1R on cells (P08069 741-1367, chain 2 of 2): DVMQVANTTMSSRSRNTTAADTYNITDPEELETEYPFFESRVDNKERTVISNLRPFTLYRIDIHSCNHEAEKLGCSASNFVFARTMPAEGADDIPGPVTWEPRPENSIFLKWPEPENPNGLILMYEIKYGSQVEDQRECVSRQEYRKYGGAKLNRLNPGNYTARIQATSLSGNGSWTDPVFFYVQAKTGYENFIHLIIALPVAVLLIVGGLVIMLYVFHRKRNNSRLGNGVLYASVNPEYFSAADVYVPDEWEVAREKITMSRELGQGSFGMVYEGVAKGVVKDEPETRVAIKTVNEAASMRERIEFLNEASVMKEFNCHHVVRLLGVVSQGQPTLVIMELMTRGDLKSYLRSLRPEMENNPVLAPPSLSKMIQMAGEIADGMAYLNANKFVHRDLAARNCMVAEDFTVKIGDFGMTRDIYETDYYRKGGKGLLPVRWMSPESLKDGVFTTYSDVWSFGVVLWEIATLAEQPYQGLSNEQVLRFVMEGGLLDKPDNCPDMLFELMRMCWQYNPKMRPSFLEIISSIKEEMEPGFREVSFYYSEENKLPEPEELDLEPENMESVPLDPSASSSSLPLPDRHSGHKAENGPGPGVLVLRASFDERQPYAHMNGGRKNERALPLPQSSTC

inhibition of IGF-1 and IGF-2 mediated IGF-1R receptor phosphorylation, EC50 | Binder
< 1 nM | M14-G11.G4.P (antibody, V domains shown) VH: EVQLLESGGGLVQPGGSLRLSCAASGFTFSNYPMYWVRQAPGKGLEWVSRISSSGGRTVYADSVKGRFTISRDNSKNTLYLQMNSLRAEDTAVYYCARDRWSRSAAEYGLGGYWGQGTLVTVSS VL: not shown
< 1 nM | M14-C03.G4.P.agly (antibody, human IgG4 S228P, kappa, V domains shown) VH: EVQLLESGGGLVQPGGSLRLSCAASGFTFSKYMMSWVRQAPGKGLEWVSYISPSGGLTWYADSVKGRFTISRDNSKNTLYLQMNSLRAEDTAVYYCARDGARGYGMDVWGQGTTVTVSS VL: DIQMTQSPATLSLSPGERATLSCRASQSVSSYLAWYQQKPGQAPRLLIYDASNRATGIPARFSGSGSGTDFTLTISSLEPEDFAVYYCQQRSNWPPEVTFGPGTKVDIKR
< 1 nM | M13-C06.G4.P.agly (antibody, human IgG4 S228P, kappa, V domains shown) VH: EVQLLESGGGLVQPGGSLRLSCAASGFTFSIYRMQWVRQAPGKGLEWVSGISPSGGTTWYADSVKGRFTISRDNSKNTLYLQMNSLRAEDTAVYYCARWSGGSGYAFDIWGQGTMVTVSS VL: DIQMTQSPLSLSASVGDRVTITCQASRDIRNYLNWYQQKPGKAPKLLIYDASSLQTGVPSRFGGSGSGTDFSFTIGSLQPEDIATYYCQQFDSLPHTFGQGTKLEIKR
